Biological target: T1, human HLA-A2.1 on T2 cells (human)
T1 construct: whole, on cells; Empty or peptide-receptive HLA-A2.1 on TAP-deficient T2 cells; also called HLA-A*0201; class I MHC molecules
Test: T2 binding assay (HLA-A2 on T2 cells, flow cytometry)

B1: Glypican-3 136-145 (SLTPQAFEFV) (peptide)
peptide: SLTPQAFEFV
notes: Synthetic 10 mer of human glypican-3 (NP-004475); also called GPC3 136-145; GPC3136-145
B1: binds.

Reference: US20130217122A1, “Expansion of Interferon-Gamma-Producing T-Cells Using Glypican-3 Peptide Library” (The Trustees of the University of Pennsylvania, priority 2012, published 2013)
